Test results reported in patent US6500428B1, “Antibodies to a lymphocyte surface receptor that binds CAML and methods of use thereof” (St. Jude Children's Research Hospital, priority 1997, dated 2002).

T1: TACI-1 (Homo sapiens, UniProt O14836)
T1 sequence (O14836 1-293): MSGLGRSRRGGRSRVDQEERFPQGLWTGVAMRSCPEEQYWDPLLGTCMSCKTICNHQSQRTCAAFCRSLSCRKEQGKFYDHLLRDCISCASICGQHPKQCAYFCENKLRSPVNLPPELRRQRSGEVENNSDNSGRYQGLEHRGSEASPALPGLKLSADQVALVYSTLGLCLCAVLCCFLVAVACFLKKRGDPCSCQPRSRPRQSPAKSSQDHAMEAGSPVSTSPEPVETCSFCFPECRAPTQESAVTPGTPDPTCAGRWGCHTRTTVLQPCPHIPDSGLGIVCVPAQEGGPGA

B1: CAML(1-146): N-terminal 146 amino acids of CAML, expressed from plasmid; dominant negative inhibitor of TACI-1 signaling (protein, UniProt P49069 1-146, looked up, fragment)
chain: MESMAVATDGGERPGVPAGSGLSASQRRAELRRRKLLMNSEQRINRIMGFHRPGSGAEEESQTKSKQQDSDKLNSLSVPSVSKRVVLGDSVSTGTTDQQGGVAEVKGTQLGDKLDSFIKPPECSSDVNLELRQRNRGDLTADSVQR

Assays:
TACI-1 [1] = molecular target: T1, TACI-1; experiment: NF-AT-driven secreted alkaline phosphatase reporter in TAg Jurkat T cells transfected with TACI-1; type: cell-based; design: expressed in transfected cells; host or cells: TAg Jurkat T cells, plasmid pBJ5-TACI-1; conditions: antibody-cross linked TACI-1 in TAg Jurkat T cells; CsA 100 ng/ml, FK506 500 pg/ml; EGTA increasing concentrations; CAML(1-146) co-transfected
Protocol: FIG. 4. TACI-1 is a signaling protein that functions in the activation of NF-AT-specific transcription. FIG. 4A depicts the activation of an NF-AT-driven secreted alkaline phosphatase reporter. TAg Jurkat T cells, co-transfected with the SXNFAT reporter [Bram et al., Mol. Cell. Biol., 13:4760-4769 (1993)] and the expression plasmid pBJ5 [Takebe, Y, et al., Mol. Cell. Biol., 8:466-472 (1988)] containing either TACI-1-encoding cDNA (solid triangles) or nothing (circles), were treated with 50 ng/ml PMA and the indicated amounts of ionomycin in the presence (closed symbols) and absence (open symbols) of magnetic beads coated with immunoaffinity-purified anti-TACI-1 polyclonal antibodies. […] NF-AT activation was determined in TAg Jurkat T cells co-transfected with SXNFAT and pBJ5 (−TACI-1, left) or pBJ5-TACI-1 (+TACI-1, right), and treated with the indicated combinations of PMA (50 ng/ml), ionomycin (2 μM), CsA (100 ng/ml) and FK506 (500 pg/ml) in the presence of anti-TACI-1 antibody-coated beads (‘NS’, not stimulated). […] NF-AT activation was measured in the presence of EGTA in Jurkat T cells over expressing TACI-1. […] AP-1 activation was measured in TAg Jurkat T cells, co-transfected with a mouse metallothionein AP-1-SEAP reporter [Bram et al., 1991, supra] and pBJ5 containing no insert (−TACI-1, left) or TACI-1 cDNA (+TACI-1, right). […]

TACI-1 [2] = molecular target: T1, TACI-1; experiment: Co-immunoprecipitation with FLAG-tagged TACI-1 from 293T cell lysates; type: binding; conditions: anti-FLAG agarose beads
Protocol: FIGS. 5A-5D. TACI-1 interaction with CAML is critical for Ca^2+ signaling. […] Full-length cDNAs and indicated deletion mutants of TACI-1 and CAML were cloned into the yeast expression plasmids pACT and/or pAS1, and the indicated combinations were tested for interaction with the yeast 2-hybrid system (‘+’, positive interaction; ‘−’, no interaction; ‘ND’, not done). FIG. 5D depicts the co-immunoprecipitation of CAML with TACI-1. 293T cells were transfected with the indicated combinations of the expression plasmid pBJ5 containing cDNAs for CAML. TACI-1 with an N-terminal FLAG tag, the N-terminal 146 amino acids of CAML (CLX91), or no insert. After incubation for 48 hours, the cells were lysed (1% dodecyl maltoside, 20 […] HEPES pH 7.4. 150 mM NaCl, 10% glycerol, 2 mM MgSO4, 1 mM CaCl2, 1 mM PMSF) and the lysate was clarified by centrifugation. FLAG-tagged TACI-1 and associated proteins were immunoprecipitated with anti-FLAG monoclonal antibody-conjugated agarose beads and subjected to Western transfer using standard protocols. […] NF-AT activation was determined in TAg Jurkat cells transfected with pBJ5 alone, pBJ5-TACI-1 plus the control plasmid, or pBJ5-TACI-1 with an equivalent amount of CLX91, following treatment with TACI-1-specific antibodies (top). TACI-1 expression in these transfections was determined by Western blot using anti-TACI-1 polyclonal antibodies (bottom). […]

[3] = tested on: PMA plus ionomycin-induced NF-AT activity; experiment: PMA plus ionomycin-induced NF-AT activity in Jurkat T cells (specificity control); type: cell-based, human; conditions: co-transfection in Jurkat T cells
Protocol: To examine whether TACI-1 signaling depends on the association of TACI-1 with CAML. the interacting domain of CAML (residues 1-146) is tested to determine if it can inhibit TACI-1-induced NF-AT activation in a dominant negative fashion. […] CAML(1-146) lacks the hydrophobic transmembrane domains that are required for Ca^2+ influx activity [Holloway & Bram, Biol. Chem., 271:8549-8552 (1996)].

| Molecule | effect on TACI-1-mediated NF-AT activation (TACI-1 [1]) | co-immunoprecipitation with TACI-1 (TACI-1 [2]) | effect on PMA plus ionomycin-induced NF-AT activity [3] |
| --- | --- | --- | --- |
| O=C(O)CN(CCOCCOCCN(CC(=O)O)CC(=O)O)CC(=O)O [EGTA, reference compound] | inhibition |  |  |
| B1 | completely eliminates | co-immunoprecipitated | no inhibitory effect |
